The values below come from patent US8546531B2, “Methods and reagents for preparing multifunctional probes” (The General Hospital Corporation, priority 2008, dated 2013).

The data set has as its system integrin-expressing B16F0 melanoma. As to conditions: mouse, in vivo, iv. As for the experimental part:
Approximately 1·10^6 B16F0 murine melanoma cells (from C57BL6 mice) in PBS (40 μL) were injected s.c. into the right hind paw of 6-8 weeks female C57BL6 mice (Charles River Laboratories). After 4 weeks, tumors reached a size suitable for nuclear imaging experiments.
SPECT imaging co-registered with high-resolution CT was performed on a X-SPECT™ system (Gamma Medica, Northridge, Calif., USA). The SPECT system has two gamma cameras, equipped with 1 mm diameter medium-energy pinhole collimators. The solid state CT is mounted on the same gantry as the gamma cameras enabling high quality image fusion. The SPECT images were reconstructed using OSEM (ordered subsets expectation maximization) and CT images were reconstructed using a modified Feldkamp cone-beam reconstruction algorithm (COBRA). The ^111In-MSAP-RGD probe (300 μCi in 150 μL) was injected (iv, tail vein) and after 2 hours mice were anesthetized (isoflurane). CT (256 projections, 50 kV, 0.5 mA) was performed followed by a SPECT acquisition with parameters of 64 projections, 30-120 seconds per projection and a radius of rotation of 3.5 cm giving a resolution of 1.8 mm. […] Mean SPECT pixel intensity and tumor volumes were determined by designing regions of interest (ROIs) on the hind paws of the micrometer resolution CT scans and extrapolating these ROIs to the fused SPECT data using Osirix software. […]

With `N=C(N)NCCC[C@@H]1NC(=O)[C@H](CCCCNC(=O)CCCN2C(=O)CC(SC[C@H](NC(=O)[C@H](CCCCNC(=O)CCCCCNc3ccc([N+](=O)[O-])c4nonc34)NC(=O)CN(CCN(CC(=O)O)CC(=O)O)CCN(CC(=O)O)CC(=O)O)C(N)=O)C2=O)NC(=O)[C@@H](Cc2ccccc2)NC(=O)[C@H](CC(=O)O)NC(=O)CNC1=O` (stereo partly shown) (111In complex, metal not drawn) [MSAP-RGD probe], the “distribution of the probe within the tumor” value is “occurred in parts of the tumor with high CD31 (endothelial cell maker) levels and CD11b (monocytes/macrophages marker) levels”.
